Measured values reported in paper PMC3092815 (Proteins, 2011).

Target: Clostridium perfringens archaeal-type phosphoenolpyruvate carboxylase (PepcA) (Clostridium perfringens) (UniProt Q8XLE8)
Test: AUC

Clostridium perfringens archaeal-type phosphoenolpyruvate carboxylase (PepcA) (from UniProt Q8XLE8 1-537) (enzyme)
percent of the total concentration as dimer: 30%
